From the supplement of paper PMC11246515
± gives the standard deviation of the averaged measurements.

Assay: total protein half-life in vivo (active degradation + dilution); higher = more stable protein
[1] = E. coli NCM3722 delta-clpP delta-lon delta-hslV, growth: N-lim chemostat, doubling time 6 h
[2] = E. coli NCM3722 delta-clpP, growth: N-lim chemostat, doubling time 6 h
[3] = E. coli NCM3722 delta-hslV, growth: N-lim chemostat, doubling time 6 h
[4] = E. coli NCM3722 delta-lon, growth: N-lim chemostat, doubling time 6 h
[5] = E. coli NCM3722 delta-smpB, growth: N-lim chemostat, doubling time 6 h
[6] = wild type E. coli NCM3722, growth: C-lim chemostat, doubling time 3 h
[7] = wild type E. coli NCM3722, growth: C-lim chemostat, doubling time 6 h
[8] = wild type E. coli NCM3722, growth: C-lim chemostat, doubling time 12 h
[9] = wild type E. coli NCM3722, growth: N-lim chemostat, doubling time 6 h
[10] = wild type E. coli NCM3722, growth: N-lim chemostat, doubling time 12 h
[11] = wild type E. coli NCM3722, growth: P-lim chemostat, doubling time 6 h
[12] = wild type E. coli NCM3722, growth: P-lim chemostat, doubling time 12 h

MTNLNYQQTHFVMSAPDIRHLPSDTGIEVAFAGRSNAGKSSALNTLTNQKSLARTSKTPGRTQLINLFEVADGKRLVDLPGYGYAEVPEEMKRKWQRALGEYLEKRQSLQGLVVLMDIRHPLKDLDQQMIEWAVDSNIAVLVLLTKADKLASGARKAQLNMVREAVLAFNGDVQVETFSSLKKQGVDKLRQKLDTWFSEMQPVEETQDGE [P0A6P7]
total protein half-life in vivo [1]: 5.33 ± 0.22 h | total protein half-life in vivo [2]: 6.45 ± 1.6 h | total protein half-life in vivo [3]: 5.05 ± 0.074 h | total protein half-life in vivo [4]: 5.83 ± 0.38 h | total protein half-life in vivo [5]: 5.19 ± 0.42 h | total protein half-life in vivo [6]: 2.924 ± 0.022 h | total protein half-life in vivo [7]: 5.58 ± 0.19 h | total protein half-life in vivo [8]: 11.2 ± 0.46 h | total protein half-life in vivo [9]: 5.08 ± 0.32 h | total protein half-life in vivo [10]: 9.45 ± 0.2 h | total protein half-life in vivo [11]: 5.59 ± 0.11 h | total protein half-life in vivo [12]: 11.4 ± 0.91 h

MRMNMSDFATFFAVARNQSFRAAGDELGLSSSAISHSIKTLEQRLKIRLFNRTTRSVSLTEAGSNLYERLRPAFDEIQIMLDEMNDFRLTPTGTLKINAARVAARIFLMSLLVGFTREYPDIKVELTTDDSLVDIVQQGFDAGVRLSCIVEKDMISVAIGPPVKLCVAATPEYFARYGKPRHPHDLLNHQCVVFRYPSGKPFHWQFAKELEIAVAGNIILDDVDAELEAVLMGAGIGYLLYEQIKEYLDTGRLECVLEDWSTERPGFQIYYPNRQYMSCGLRAFLDYVKTGQICQSQRHRPQ
total protein half-life in vivo [1]: 5.54 ± 0.06 h

MRYIKSITQQKLSFLLAIYIGLFMNGAVFYRRFGSYAHDFTVWKGISAVVELAATVLVTFFLLRLLSLFGRRSWRILASLVVLFSAGASYYMTFLNVVIGYGIIASVMTTDIDLSKEVVGLNFILWLIAVSALPLILIWNNRCRYTLLRQLRTPGQRIRSLAVVVLAGIMVWAPIRLLDIQQKKVERATGVDLPSYGGVVANSYLPSNWLSALGLYAWARVDESSDNNSLLNPAKKFTYQAPQNVDDTYVVFIIGETTRWDHMGIFGYERNTTPKLAQEKNLAAFRGYSCDTATKLSLRCMFVRQGGAEDNPQRTLKEQNIFAVLKQLGFSSDLYAMQSEMWFYSNTMADNIAYREQIGAEPRNRGKPVDDMLLVDEMQQSLGRNPDGKHLIILHTKGSHFNYTQRYPRSFAQWKPECIGVDSGCTKAQMINSYDNSVTYVDHFISSVIDQVRDKKAIVFYAADHGESINEREHLHGTPRELAPPEQFRVPMMVWMSDKYLENPANAQAFAQLKKEADMKVPRRHVELYDTIMGCLGYTSPDGGINENNNWCHIPQAKEAAAN
total protein half-life in vivo [1]: 4 ± 0.3 h | total protein half-life in vivo [3]: 4.35 ± 1.7 h | total protein half-life in vivo [4]: 6.45 ± 0.89 h | total protein half-life in vivo [5]: 3.61 ± 0.3 h | total protein half-life in vivo [6]: 2.87 ± 0.19 h | total protein half-life in vivo [7]: 4.84 ± 0.023 h | total protein half-life in vivo [8]: 8.037 ± 0.012 h | total protein half-life in vivo [9]: 5.66 ± 0.37 h | total protein half-life in vivo [10]: 8.75 ± 0.59 h | total protein half-life in vivo [11]: 4.14 ± 1.1 h | total protein half-life in vivo [12]: 6.76 ± 1.3 h

MDNAVDRHVFYISDGTAITAEVLGHAVMSQFPVTISSITLPFVENESRARAVKDQIDAIYHQTGVRPLVFYSIVLPEIRAIILQSEGFCQDIVQALVAPLQQEMKLDPTPIAHRTHGLNPNNLNKYDARIAAIDYTLAHDDGISLRNLDQAQVILLGVSRCGKTPTSLYLAMQFGIRAANYPFIADDMDNLVLPASLKPLQHKLFGLTIDPERLAAIREERRENSRYASLRQCRMEVAEVEALYRKNQIPWINSTNYSVEEIATKILDIMGLSRRMY [P0A8A4]
total protein half-life in vivo [1]: 5.48 ± 1.3 h | total protein half-life in vivo [2]: 4.186 ± 0.013 h | total protein half-life in vivo [3]: 4.0273 ± 0.0032 h | total protein half-life in vivo [4]: 4.39 ± 0.15 h | total protein half-life in vivo [5]: 3.98 ± 0.32 h | total protein half-life in vivo [6]: 3.15 ± 0.21 h | total protein half-life in vivo [7]: 5.64 ± 0.63 h | total protein half-life in vivo [8]: 9.92 ± 1.4 h | total protein half-life in vivo [9]: 4.1527 ± 0.0038 h | total protein half-life in vivo [10]: 6.76 ± 0.45 h | total protein half-life in vivo [11]: 5.48 ± 0.51 h | total protein half-life in vivo [12]: 10.7 ± 0.8 h

MLLAGAIFVLTIVLVIWQPKGLGIGWSATLGAVLALVTGVVHPGDIPVVWNIVWNATAAFIAVIIISLLLDESGFFEWAALHVSRWGNGRGRLLFTWIVLLGAAVAALFANDGAALILTPIVIAMLLALGFSKGTTLAFVMAAGFIADTASLPLIVSNLVNIVSADFFGLGFREYASVMVPVDIAAIVATLVMLHLYFRKDIPQNYDMALLKSPAEAIKDPATFKTGWVVLLLLLVGFFVLEPLGIPVSAIAAVGALILFVVAKRGHAINTGKVLRGAPWQIVIFSLGMYLVVYGLRNAGLTEYLSGVLNVLADNGLWAATLGTGFLTAFLSSIMNNMPTVLVGALSIDGSTASGVIKEAMVYANVIGCDLGPKITPIGSLATLLWLHVLSQKNMTISWGYYFRTGIIMTLPVLFVTLAALALRLSFTL [P0AB93]
total protein half-life in vivo [3]: 6.25 h | total protein half-life in vivo [9]: 5.83 h | total protein half-life in vivo [10]: 12.1 h | total protein half-life in vivo [12]: 13.8 ± 1.1 h

MEKNNEVIQTHPLVGWDISTVDSYDALMLRLHYQTPNKSEQEGTEVGQTLWLTTDVARQFISILEAGIAKIESGDFQVNEYRRH [P0AB33]
total protein half-life in vivo [1]: 4.09 h

MTEAQRHQILLEMLAQLGFVTVEKVVERLGISPATARRDINKLDESGKLKKVRNGAEAITQQRPRWTPMNLHQAQNHDEKVRIAKAASQLVNPGESVVINCGSTAFLLGREMCGKPVQIITNYLPLANYLIDQEHDSVIIMGGQYNKSQSITLSPQGSENSLYAGHWMFTSGKGLTAEGLYKTDMLTAMAEQKMLSVVGKLVVLVDSSKIGERAGMLFSRADQIDMLITGKNANPEILQQLEAQGVSILRV [P0A9W0]
total protein half-life in vivo [1]: 5.74 ± 0.06 h | total protein half-life in vivo [2]: 5.84 ± 0.28 h | total protein half-life in vivo [3]: 6.01 ± 0.41 h | total protein half-life in vivo [4]: 5.66 ± 0.8 h | total protein half-life in vivo [5]: 5.95 ± 0.36 h | total protein half-life in vivo [6]: 3.08 ± 0.11 h | total protein half-life in vivo [7]: 6 ± 0.48 h | total protein half-life in vivo [8]: 10.6 ± 1.7 h | total protein half-life in vivo [9]: 5.68 ± 0.2 h | total protein half-life in vivo [10]: 10.9 ± 0.72 h | total protein half-life in vivo [11]: 6.75 ± 1.5 h | total protein half-life in vivo [12]: 13.3 ± 0.25 h

MLNIVLYEPEIPPNTGNIIRLCANTGFRLHIIEPMGFAWDDKRLRRAGLDYHEFTAVTRHHDYRAFLEAENPQRLFALTTKGTPAHSAVSYQDGDYLMFGPETRGLPASILDALPAEQKIRIPMVPDSRSMNLSNAVSVVVYEAWRQLGYPGAVLRD [P0AGJ7]
total protein half-life in vivo [1]: 5.27 ± 0.13 h | total protein half-life in vivo [3]: 5.83 ± 0.49 h | total protein half-life in vivo [4]: 5.54 ± 0.16 h | total protein half-life in vivo [5]: 4.82 ± 0.33 h | total protein half-life in vivo [6]: 2.91 ± 0.35 h | total protein half-life in vivo [7]: 6.26 h | total protein half-life in vivo [8]: 13.8 ± 2.8 h | total protein half-life in vivo [9]: 5.23 h | total protein half-life in vivo [10]: 8.21 ± 0.38 h | total protein half-life in vivo [11]: 5.93 ± 0.22 h | total protein half-life in vivo [12]: 11.9 ± 0.24 h

MPKSVIIPAGSSAPLAPFVPGTLADGVVYVSGTLAFDQHNNVLFADDPKAQTRHVLETIRKVIETAGGTMADVTFNSIFITDWKNYAAINEIYAEFFPGDKPARFCIQCGLVKPDALVEIATIAHIAK [P0AFQ5]
total protein half-life in vivo [5]: 3.86 h
